In PMC7397744:

Assay: crystallisation trials
Details: glycan lost; control: wild type

B1: human lysosomal acid lipase (HLAL): enzymatically deglycosylated (protein)
parent chain: MKMRFLGLVVCLVLWTLHSEGSGGKLTAVDPETNMNVSEIISYWGFPSEEYLVETEDGYILCLNRIPHGRKNHSDKGPKPVVFLQHGLLADSSNWVTNLANSSLGFILADAGFDVWMGNSRGNTWSRKHKTLSVSQDEFWAFSYDEMAKYDLPASINFILNKTGQEQVYYVGHSQGTTIGFIAFSQIPELAKRIKMFFALGPVASVAFCTSPMAKLGRLPDHLIKDLFGDKEFLPQSAFLKWLGTHVCTHVILKELCGNLCFLLCGFNERNLNMSRVDVYTTHSPAGTSVQNMLHWSQAVKFQKFQAFDWGSSAKNYFHYNQSYPPTYNVKDMLVPTAVWSGGHDWLADVYDVNILLTQITNLVFHESIPEWEHLDFIWGLDAPWRLYNKIINLMRKYQ
- other: crystallisability: no change
